Assay [1] deals with T1, bovine serum albumin (bovine, UniProt P02769 25-607).
T1 construct: also called BSA; bovine SA
As to the kind of experiment: monoclonal phage ELISA at pH 6, antigen coated at 5 ug/ml, anti-human kappa-HRPO, A450. Here is the method:
(§1) For the monoclonal phage ELISA, the recombinant phage was obtained from positive E. coli clones by phage rescue, and ˜10⁸ CFU/well were added to MaxiSorb ELISA plates (Nunc, Roskilde, Denmark) that were coated with 5 μg/ml HSA, RSA, MSA or BSA. The phage was allowed to bind to the antigens either at pH 6 or at pH 7.4 for 1 h at 37° C. A goat anti-human kappa L Ab-conjugated with HRPO (Sigma-Aldrich) was used as a secondary antibody. The binding signals were visualized with a TMB substrate (BD Science, San Jose, Calif., USA), and the absorbance at 450 nm was measured using an ELISA reader (Bio-Rad, Hercules, Calif., USA). The data represent the average of three experiments standard deviation. For the conventional ELISA, the various antigens [human SA, rat SA, mouse SA, monkey SA (Alpha diagnositic Intl., San Antonio, Tex., USA), canine SA (CUSABIO, Wuhan, Hubei, China). rabbit SA (Sigma-Aldrich), epidermal growth factor receptor (EGFR) (R&D systems, Minneapolis, Minn., USA), epithelial cell adhesion molecule (EpCAM) (R&D systems), IL-15 receptor a (IL-15Ra) (R&D systems), IL-10 (eBioscience, San Diego, Calif., USA), CD16a (R&D systems), c-MET (Sinobiological, Beijing, China)] at 5 μg/ml concentrations were immobilized on the microtiter plates, and the Fab molecules were allowed to bind to the antigens, and detected as above. To determine the concentration of soluble Fab or Fab-hGH fusion proteins, a sandwich ELISA was performed using a mouse anti-human IgG Fd mAb (AprilBio) as a capturing Ab and the goat anti-human kappa L chain pAb-HRPO conjugated (Sigma-Aldrich) as a detecting antibody. The human Fab fragment (Bethyl, Montgomery, Tex., USA) with a known concentration was used to draw the standard curve. For detecting the hGH domain, T-20, a goat pAb specific for the C-terminus of the hGH (Santacruz Biotechnology, Dallas, Tex., USA) and NYThGH, a mouse mAb specific for full-length hGH (Prospec, East Brunswick, N.J., USA) were used followed by a rabbit anti-goat IgG pAb-HRPO conjugated (Sigma-Aldrich) or a goat anti-mouse IgG pAb-HRPO conjugated (Sigma-Aldrich), respectively as a secondary antibody. A goat anti-human GCSF pAb (R&D Systems) was used to detecting the G-CSF domain, and a rabbit anti-human IFN-β pAb (PEPROTECH, Rocky Hill, USA) was used to detect the IFN-β domain.
Background: An ELISA detects its analyte on a solid surface through an enzyme-linked reagent.

The target of assay [2] is T2, rat serum albumin (rat, UniProt P02770 25-608).
T2 construct: Bought protein; also called RSA; rat SA
T2 sequence (P02770 25-608 limits assumed): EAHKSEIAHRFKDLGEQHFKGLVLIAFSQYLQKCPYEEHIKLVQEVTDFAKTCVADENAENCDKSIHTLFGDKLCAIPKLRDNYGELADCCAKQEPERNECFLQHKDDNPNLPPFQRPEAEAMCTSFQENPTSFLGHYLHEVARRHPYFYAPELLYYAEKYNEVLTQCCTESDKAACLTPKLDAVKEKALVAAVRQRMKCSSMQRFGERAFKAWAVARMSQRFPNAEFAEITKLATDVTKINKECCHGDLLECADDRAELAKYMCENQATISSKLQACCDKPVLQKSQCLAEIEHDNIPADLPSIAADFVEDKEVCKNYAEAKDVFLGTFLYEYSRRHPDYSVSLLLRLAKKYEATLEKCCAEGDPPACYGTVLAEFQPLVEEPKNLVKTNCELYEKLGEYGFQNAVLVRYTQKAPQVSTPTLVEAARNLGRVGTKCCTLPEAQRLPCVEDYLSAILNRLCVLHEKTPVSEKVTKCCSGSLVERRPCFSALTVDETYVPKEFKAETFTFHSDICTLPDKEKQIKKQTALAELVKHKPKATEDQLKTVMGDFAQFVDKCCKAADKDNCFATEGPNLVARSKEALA
As to the kind of experiment: monoclonal phage ELISA at pH 7.4, antigen coated at 5 ug/ml, anti-human kappa-HRPO, A450. On the procedure: as §1

The target of assay [3] is T3, mouse serum albumin (mouse, UniProt P07724 25-608).
T3 construct: Bought protein; also called MSA; mouse SA
T3 sequence (P07724 25-608 limits assumed): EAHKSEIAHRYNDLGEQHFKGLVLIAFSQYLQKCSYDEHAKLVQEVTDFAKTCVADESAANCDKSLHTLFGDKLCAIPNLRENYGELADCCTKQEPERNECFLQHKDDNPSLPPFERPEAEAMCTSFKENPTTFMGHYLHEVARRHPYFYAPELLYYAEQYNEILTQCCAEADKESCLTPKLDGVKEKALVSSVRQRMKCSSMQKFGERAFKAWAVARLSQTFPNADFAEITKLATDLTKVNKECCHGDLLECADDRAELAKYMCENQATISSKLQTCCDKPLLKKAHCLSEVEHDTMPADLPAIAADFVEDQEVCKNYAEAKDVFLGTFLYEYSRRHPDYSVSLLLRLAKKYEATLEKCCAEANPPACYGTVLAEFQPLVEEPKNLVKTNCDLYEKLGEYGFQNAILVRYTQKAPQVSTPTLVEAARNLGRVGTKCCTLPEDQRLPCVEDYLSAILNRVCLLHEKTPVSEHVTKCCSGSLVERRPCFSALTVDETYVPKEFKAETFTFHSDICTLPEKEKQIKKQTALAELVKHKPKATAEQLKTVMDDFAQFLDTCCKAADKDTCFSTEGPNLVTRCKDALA
The description is as above. Here is the method: as §1

Assay [4] deals with T4, human serum albumin (human, UniProt P02768 25-609).
T4 construct: Bought protein; also called HSA; human SA
The experiment in a line: ELISA at pH 6.0: purified soluble Fab titrated on antigen coated at 5 ug/ml; anti-human kappa L chain pAb-HRPO, TMB, A450. On the procedure:
(§2) For the monoclonal phage ELISA, the recombinant phage was obtained from positive E. coli clones by phage rescue, and ˜10⁸ CFU/well were added to MaxiSorb ELISA plates (Nunc, Roskilde, Denmark) that were coated with 5 μg/ml HSA, RSA, MSA or BSA. The phage was allowed to bind to the antigens either at pH 6 or at pH 7.4 for 1 h at 37° C. A goat anti-human kappa L Ab-conjugated with HRPO (Sigma-Aldrich) was used as a secondary antibody. The binding signals were visualized with a TMB substrate (BD Science, San Jose, Calif., USA), and the absorbance at 450 nm was measured using an ELISA reader (Bio-Rad, Hercules, Calif., USA). The data represent the average of three experiments standard deviation. For the conventional ELISA, the various antigens [human SA, rat SA, mouse SA, monkey SA (Alpha diagnositic Intl., San Antonio, Tex., USA), canine SA (CUSABIO, Wuhan, Hubei, China). rabbit SA (Sigma-Aldrich), epidermal growth factor receptor (EGFR) (R&D systems, Minneapolis, Minn., USA), epithelial cell adhesion molecule (EpCAM) (R&D systems), IL-15 receptor a (IL-15Ra) (R&D systems), IL-10 (eBioscience, San Diego, Calif., USA), CD16a (R&D systems), c-MET (Sinobiological, Beijing, China)] at 5 μg/ml concentrations were immobilized on the microtiter plates, and the Fab molecules were allowed to bind to the antigens, and detected as above. […]

Assay [5] concerns the target T2, rat serum albumin. The description is as above. On the procedure:
as §2

Assay [6] deals with T4, human serum albumin. As to the kind of experiment: ELISA at pH 7.4: purified soluble Fab titrated on antigen coated at 5 ug/ml; anti-human kappa L chain pAb-HRPO, TMB, A450. Here is the method: as §2
Assay [7] concerns the target T2, rat serum albumin. The description is as above. On the procedure:
as §2

The target of assay [8] is T3, mouse serum albumin. The experiment in a line: monoclonal phage ELISA at pH 6: Fab on phage, about 10^8 CFU/well, on antigen coated at 5 ug/ml; anti-human kappa-HRPO, TMB, A450. Here is the method: as §2
The target in assay [9] is T4, human serum albumin. As to the kind of experiment: monoclonal phage ELISA at pH 7.4: Fab on phage, about 10^8 CFU/well, on antigen coated at 5 ug/ml; anti-human kappa-HRPO, TMB, A450. On the procedure: as §1
For assay [10], the target named is T2, rat serum albumin. Described as above. On the procedure: as §1
Assay [11] deals with T3, mouse serum albumin. Described as above. On the procedure:
as §1

In assay [12] the target is T1, bovine serum albumin. As to the kind of experiment: monoclonal phage ELISA at pH 7.4, antigen coated at 5 ug/ml, anti-human kappa-HRPO, A450. On the procedure:
as §1

The target of assay [13] is T2, rat serum albumin. As to the kind of experiment: monoclonal phage ELISA at pH 6, antigen coated at 5 ug/ml, anti-human kappa-HRPO, A450. On the procedure: as §1
The target in assay [14] is T3, mouse serum albumin. Described as above. On the procedure: as §1

T1 sequence (P02769 25-607 limits assumed): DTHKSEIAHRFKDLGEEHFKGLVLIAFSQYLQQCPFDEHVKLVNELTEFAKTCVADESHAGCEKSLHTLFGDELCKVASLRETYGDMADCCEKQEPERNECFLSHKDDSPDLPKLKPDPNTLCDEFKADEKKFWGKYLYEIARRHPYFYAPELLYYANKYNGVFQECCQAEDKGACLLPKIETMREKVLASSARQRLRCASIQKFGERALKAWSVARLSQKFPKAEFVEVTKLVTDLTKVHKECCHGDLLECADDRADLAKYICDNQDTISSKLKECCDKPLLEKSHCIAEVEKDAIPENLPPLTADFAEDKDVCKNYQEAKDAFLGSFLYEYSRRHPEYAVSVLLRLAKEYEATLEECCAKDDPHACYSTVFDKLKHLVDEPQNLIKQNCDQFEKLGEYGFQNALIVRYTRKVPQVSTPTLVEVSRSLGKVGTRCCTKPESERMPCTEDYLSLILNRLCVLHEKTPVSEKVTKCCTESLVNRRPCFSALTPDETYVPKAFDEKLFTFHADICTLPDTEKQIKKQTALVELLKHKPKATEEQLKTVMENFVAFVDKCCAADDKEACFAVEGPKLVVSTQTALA

B1: SA140 (Fab, V domains shown)
VH: QVQLVQSGGGVVQTGGSLRLSCAASGFTFRNYGIHWVRQAPGKGLEWVASISYDGSNKYYADSVKGRFTISRDNSRNTVHVQMDSLRGGDTAVYYCARDVHYYGSGSYYNAFDIWGQGTLVTVSS
VL: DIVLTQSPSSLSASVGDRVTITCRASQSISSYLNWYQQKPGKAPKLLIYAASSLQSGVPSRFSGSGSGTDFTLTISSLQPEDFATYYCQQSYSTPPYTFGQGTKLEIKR
notes: also called SA140 Fab
Consider B1, for which the binding result in assay [1], in assay [2] and in [3] was “no binding” each time.

B2: SL310 (Fab, V domains shown)
VH: QVQLVQSGGGPVKPGGSLRLSCAASGFMFRAYSMNWVRQAPGKGLEWVSSISSSGRYIHYADSVKGRFTISRDNAKNSLYLQMNSLRAEDTAVYYCARETVMAGKALDYWGQGTLVTVSS
VL: ELVLTQSPGTLSLSPGERATLSCRASQSVSSSSLAWYQQKPGQAPRLLIYGASSRATGIPDRFSGSGSGTDFTLTISSLQPEDAATYYCQKYSSYPLTFGQGTKLEIKR
notes: Human Fab (VH+CH1, VL+CLk); tested on phage and as soluble Fab purified from E. coli; also called SL310 Fab
For orientation: EC50 (read off the curve) means the concentration giving half of the maximal effect. Lower therefore signals an effect from little substance. For B2, the binding result is reported as “no binding” in assay [1] and “binds” in [8]. In addition, the “EC50 (read off the curve)” value in assay [4] was approximately 0.1 µg/mL; in assay [5], approximately 0.6 µg/mL; in assay [6], approximately 0.3 µg/mL; in assay [7], approximately 0.2 µg/mL.

B3: SL301 (Fab, V domains shown)
VH: B2 VH
VL: ELVLTQSPGTLSLSPGERATLSCRASETVSSRQLAWYQQKPGQAPRLLIYGASSRATGIPDRFSGSGSGTDFTLTISRLEPEDSAVFYCQQYGSSPRTFGGGTKLEIKR
notes: Human Fab (VH+CH1, VL+CLk); tested on phage and as soluble Fab purified from E. coli; also called SL301 Fab
Regarding B3, the binding result is given as “no binding” in assay [1], “binds” in assay [9] and “binds” in assay [10].

B4: SL18 (Fab, V domains shown)
VH: EVQLVQSGTEVKKPGESLKISCKISGYSFTAYWIAWVRQMPGKGLEWMGMIWPPDADARYSPSFQGQVTFSVDKSISTAYLQWHSLKTSDTAVYYCARLYSGSYSPWGQGTLVTVSS
VL: ELVLTQSPGTLSLSPGERATLSCRASQSIFNYVAWYQQKPGQAPRLLIYDASNRATGIPARFSGSGSGTDFTLTISSLEPEDFAVYYCQQRSKWPPTWTFGQGTRVDIKR
notes: Human Fab (VH+CH1, VL+CLk); tested on phage and as soluble Fab purified from E. coli; also called SL18 Fab
With B4, the binding result was “no binding” in assay [1], “binds” in assay [9], “binds” in assay [10] and “binds” in [11].

B5: SA139 (Fab, V domains shown)
VH: EVQLLQSGAEVKEPGASVKVSCKASGYTFSSYGISWVRQAPGQGLEWVGRINTYNGNTGYAQRLQGRVTMTTDTSTSIAYMEVRSLRSDDTAVYYCARLGHCQRGICSDALDTWGQGTMVTVSS
VL: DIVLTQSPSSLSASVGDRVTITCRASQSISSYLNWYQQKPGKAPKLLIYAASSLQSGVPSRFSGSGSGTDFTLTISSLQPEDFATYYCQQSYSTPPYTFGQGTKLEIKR
notes: Human Fab (VH+CH1, VL+CLk); also called SA139 Fab
Consider B5, for which the binding result was “no binding” in assay [2], “no binding” in [3], “no binding” in assay [12] and “binds” in assay [9].

B6: SA141 (Fab, V domains shown)
VH: QVQLVQSGGGLVQPGGSLRLSCAASGFTFSSYAMSWVRQAPGKGLEWLSVISHDGGFQYYADSVKGRFTVSRDNSKNTLYLQMNSLRAEDTAVYYCARAGWLRQYGMDVWGQGTLVTVSS
VL: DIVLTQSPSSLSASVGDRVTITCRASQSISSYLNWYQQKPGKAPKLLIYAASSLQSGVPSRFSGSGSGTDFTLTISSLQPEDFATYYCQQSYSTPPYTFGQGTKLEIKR
notes: also called SA141 Fab
For the molecule B6, the binding result in [13] is reported as “no binding”; in [14], “no binding”; in assay [1] it was “no binding”; in assay [9], “binds”.
